The values that follow come from US20090233982.

Data set [1] deals with Misu (full length, mouse) (Mus musculus) (UniProt Q1HFZ0). Particulars: 14C-SAM incorporation, 37 C 1 h, DNase treated; about two fold without DNase.
The test system of the next data set is Dnmt1 (Mus musculus). Particulars: 14C-SAM incorporation; as efficient as Misu.
Data set [2] deals with Misu (full length, mouse) (Mus musculus) (UniProt Q1HFZ0). Particulars: 14C-SAM incorporation, 37 C 1 h.

Like-named read-outs stand apart in the source and are kept apart here.

Sequence of Misu (full length, mouse) (Mus musculus) (Q1HFZ0 whole entry): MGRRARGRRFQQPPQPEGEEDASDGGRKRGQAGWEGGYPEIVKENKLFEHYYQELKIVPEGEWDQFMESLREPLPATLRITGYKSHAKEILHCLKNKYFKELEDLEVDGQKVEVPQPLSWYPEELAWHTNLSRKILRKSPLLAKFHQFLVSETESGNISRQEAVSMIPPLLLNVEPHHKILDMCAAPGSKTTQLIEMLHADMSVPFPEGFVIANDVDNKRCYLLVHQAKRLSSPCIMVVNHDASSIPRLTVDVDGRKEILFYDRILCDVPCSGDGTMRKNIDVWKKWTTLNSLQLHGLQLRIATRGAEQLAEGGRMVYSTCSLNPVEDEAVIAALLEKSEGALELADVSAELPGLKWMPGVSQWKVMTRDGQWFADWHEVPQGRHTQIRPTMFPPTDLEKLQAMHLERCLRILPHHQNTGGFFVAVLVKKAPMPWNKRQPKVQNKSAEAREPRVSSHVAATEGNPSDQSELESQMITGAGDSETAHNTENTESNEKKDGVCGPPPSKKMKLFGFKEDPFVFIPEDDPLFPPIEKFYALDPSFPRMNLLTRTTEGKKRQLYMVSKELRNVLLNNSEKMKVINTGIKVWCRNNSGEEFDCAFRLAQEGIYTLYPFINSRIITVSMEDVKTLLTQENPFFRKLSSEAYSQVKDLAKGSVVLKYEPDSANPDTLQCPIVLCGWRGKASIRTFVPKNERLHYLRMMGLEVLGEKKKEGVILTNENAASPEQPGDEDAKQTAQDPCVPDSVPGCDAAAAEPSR

With E. coli tRNA, the activity (fold over control) in data set [1] turned out to be 3; in the data set with Dnmt1 (Mus musculus), 2.
The substance “hemi-methylated double stranded oligonucleotide” yielded an activity (fold over control) in data set [2] (5mC on one strand (hemi-methylated), retained after RNase) of 2.
For E. coli rRNA, the activity (fold over control) (in the data set with Dnmt1 (Mus musculus); in data set [2]) was 2 in each case.
